In the supplement of paper PMC9112550, “Optimization of the antimicrobial peptide Bac7 by deep mutational scanning” (BMC Biology, 2022):

System: Escherichia coli TOP10
Assay: shrunken log2 fold change of peptide-encoding DNA abundance (4.5 h post-induction vs induction); higher = less antimicrobial activity (less host growth inhibition)
Conditions: time post-induction: 4.5 h; library: site-saturation at positions 5, 18, 19, 20
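Note: peptides expressed intracellularly from a pBAD plasmid library in pooled LB shake-flask culture, induced with 0.3% L-arabinose, DNA abundance read by NGS, three biological replicates, DESeq2 with apeglm shrinkage.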

RRIRNRPPRLPRPRPRPVEWPRP
shrunken log2 fold change: 0.00664

RRIRNRPPRLPRPRPRPVFNPRP
shrunken log2 fold change: -0.242

RRIRNRPPRLPRPRPRPVFQPRP
shrunken log2 fold change: -0.623

RRIRNRPPRLPRPRPRPVGLPRP
shrunken log2 fold change: 0.0874

RRIRNRPPRLPRPRPRPVGWPRP
shrunken log2 fold change: 0.855

RRIRNRPPRLPRPRPRPVIFPRP
shrunken log2 fold change: -0.565

RRIRNRPPRLPRPRPRPVLKPRP
shrunken log2 fold change: 0.0485

RRIRNRPPRLPRPRPRPVLQPRP
shrunken log2 fold change: -0.157

RRIRNRPPRLPRPRPRPVLSPRP
shrunken log2 fold change: 0.0114

RRIRNRPPRLPRPRPRPVMEPRP
shrunken log2 fold change: -0.173

RRIRNRPPRLPRPRPRPVMKPRP
shrunken log2 fold change: 0.0939

RRIRNRPPRLPRPRPRPVNAPRP
shrunken log2 fold change: 0.16

RRIRNRPPRLPRPRPRPVNPPRP
shrunken log2 fold change: -0.216

RRIRNRPPRLPRPRPRPVNSPRP
shrunken log2 fold change: 0.0303

RRIRNRPPRLPRPRPRPVNWPRP
shrunken log2 fold change: -0.0184

RRIRNRPPRLPRPRPRPVQMPRP
shrunken log2 fold change: 0.0259

RRIRNRPPRLPRPRPRPVQWPRP
shrunken log2 fold change: -0.0368

RRIRNRPPRLPRPRPRPVRDPRP
shrunken log2 fold change: 0.177

RRIRNRPPRLPRPRPRPVRHPRP
shrunken log2 fold change: -0.0637

RRIRNRPPRLPRPRPRPVRIPRP
shrunken log2 fold change: 0.0513

RRIRNRPPRLPRPRPRPVRVPRP
shrunken log2 fold change: 0.0666

RRIRNRPPRLPRPRPRPVSRPRP
shrunken log2 fold change: -0.152

RRIRNRPPRLPRPRPRPVVDPRP
shrunken log2 fold change: -0.274

RRIRNRPPRLPRPRPRPVWDPRP
shrunken log2 fold change: 0.325

RRIRNRPPRLPRPRPRPVYAPRP
shrunken log2 fold change: -0.128

RRIRNRPPRLPRPRPRPWAAPRP
shrunken log2 fold change: -0.109

RRIRNRPPRLPRPRPRPWAVPRP
shrunken log2 fold change: 0.0374

RRIRNRPPRLPRPRPRPWCIPRP
shrunken log2 fold change: -0.573

RRIRNRPPRLPRPRPRPWDDPRP
shrunken log2 fold change: 0.0288

RRIRNRPPRLPRPRPRPWDKPRP
shrunken log2 fold change: 0.0447

RRIRNRPPRLPRPRPRPWDQPRP
shrunken log2 fold change: 0.0603

RRIRNRPPRLPRPRPRPWEFPRP
shrunken log2 fold change: -0.00197

RRIRNRPPRLPRPRPRPWFRPRP
shrunken log2 fold change: 0.0475

RRIRNRPPRLPRPRPRPWHNPRP
shrunken log2 fold change: -0.146

RRIRNRPPRLPRPRPRPWIFPRP
shrunken log2 fold change: -0.201

RRIRNRPPRLPRPRPRPWIWPRP
shrunken log2 fold change: -0.151

RRIRNRPPRLPRPRPRPWLEPRP
shrunken log2 fold change: -0.00992

RRIRNRPPRLPRPRPRPWLIPRP
shrunken log2 fold change: -0.0217

RRIRNRPPRLPRPRPRPWMKPRP
shrunken log2 fold change: -0.0173

RRIRNRPPRLPRPRPRPWMMPRP
shrunken log2 fold change: -0.594

RRIRNRPPRLPRPRPRPWMVPRP
shrunken log2 fold change: 0.131

RRIRNRPPRLPRPRPRPWNFPRP
shrunken log2 fold change: -0.0018

RRIRNRPPRLPRPRPRPWNRPRP
shrunken log2 fold change: 0.0601

RRIRNRPPRLPRPRPRPWPLPRP
shrunken log2 fold change: -0.0801

RRIRNRPPRLPRPRPRPWRLPRP
shrunken log2 fold change: 0.0636

RRIRNRPPRLPRPRPRPWSQPRP
shrunken log2 fold change: -0.0539

RRIRNRPPRLPRPRPRPWWCPRP
shrunken log2 fold change: -0.111

RRIRNRPPRLPRPRPRPWWFPRP
shrunken log2 fold change: -0.0934

RRIRNRPPRLPRPRPRPWYWPRP
shrunken log2 fold change: -0.109

RRIRNRPPRLPRPRPRPYAAPRP
shrunken log2 fold change: -0.4

RRIRNRPPRLPRPRPRPYADPRP
shrunken log2 fold change: -0.161

RRIRNRPPRLPRPRPRPYAFPRP
shrunken log2 fold change: 0.0147

RRIRNRPPRLPRPRPRPYALPRP
shrunken log2 fold change: -0.399

RRIRNRPPRLPRPRPRPYCFPRP
shrunken log2 fold change: -0.516

RRIRNRPPRLPRPRPRPYCKPRP
shrunken log2 fold change: -0.258

RRIRNRPPRLPRPRPRPYCQPRP
shrunken log2 fold change: -0.358

RRIRNRPPRLPRPRPRPYCSPRP
shrunken log2 fold change: -0.0619

RRIRNRPPRLPRPRPRPYDDPRP
shrunken log2 fold change: 0.00769

RRIRNRPPRLPRPRPRPYDEPRP
shrunken log2 fold change: -0.0237

RRIRNRPPRLPRPRPRPYIMPRP
shrunken log2 fold change: -0.741

RRIRNRPPRLPRPRPRPYKNPRP
shrunken log2 fold change: -0.941

RRIRNRPPRLPRPRPRPYKQPRP
shrunken log2 fold change: -0.0495

RRIRNRPPRLPRPRPRPYLYPRP
shrunken log2 fold change: -0.317

RRIRNRPPRLPRPRPRPYMEPRP
shrunken log2 fold change: -0.0924

RRIRNRPPRLPRPRPRPYMKPRP
shrunken log2 fold change: -0.03

RRIRNRPPRLPRPRPRPYPVPRP
shrunken log2 fold change: 0.00968

RRIRNRPPRLPRPRPRPYPWPRP
shrunken log2 fold change: -0.0963

RRIRNRPPRLPRPRPRPYQAPRP
shrunken log2 fold change: 0.036

RRIRNRPPRLPRPRPRPYQEPRP
shrunken log2 fold change: -0.00962

RRIRNRPPRLPRPRPRPYQFPRP
shrunken log2 fold change: -0.225

RRIRNRPPRLPRPRPRPYQGPRP
shrunken log2 fold change: -0.00804

RRIRNRPPRLPRPRPRPYRCPRP
shrunken log2 fold change: -0.153

RRIRNRPPRLPRPRPRPYSCPRP
shrunken log2 fold change: -1.1

RRIRNRPPRLPRPRPRPYTGPRP
shrunken log2 fold change: -0.0137

RRIRNRPPRLPRPRPRPYYFPRP
shrunken log2 fold change: -0.695

RRIRPRPPRLPRPRPRPAAPPRP
shrunken log2 fold change: 0.467

RRIRPRPPRLPRPRPRPAATPRP
shrunken log2 fold change: 0.809

RRIRPRPPRLPRPRPRPACQPRP
shrunken log2 fold change: 0.22

RRIRPRPPRLPRPRPRPADIPRP
shrunken log2 fold change: 0.142

RRIRPRPPRLPRPRPRPADTPRP
shrunken log2 fold change: 0.221

RRIRPRPPRLPRPRPRPAFKPRP
shrunken log2 fold change: 0.192

RRIRPRPPRLPRPRPRPAFPPRP
shrunken log2 fold change: 0.409

RRIRPRPPRLPRPRPRPAFYPRP
shrunken log2 fold change: -0.00911

RRIRPRPPRLPRPRPRPAGLPRP
shrunken log2 fold change: 0.279

RRIRPRPPRLPRPRPRPAGMPRP
shrunken log2 fold change: -0.00962

RRIRPRPPRLPRPRPRPAICPRP
shrunken log2 fold change: 0.0446

RRIRPRPPRLPRPRPRPAIFPRP
shrunken log2 fold change: -0.0302

RRIRPRPPRLPRPRPRPAKPPRP
shrunken log2 fold change: 0.196

RRIRPRPPRLPRPRPRPAKVPRP
shrunken log2 fold change: 0.045

RRIRPRPPRLPRPRPRPALHPRP
shrunken log2 fold change: 0.681

RRIRPRPPRLPRPRPRPALNPRP
shrunken log2 fold change: 0.0983

RRIRPRPPRLPRPRPRPAMFPRP
shrunken log2 fold change: 0.0516

RRIRPRPPRLPRPRPRPANIPRP
shrunken log2 fold change: -0.617

RRIRPRPPRLPRPRPRPANPPRP
shrunken log2 fold change: 0.13

RRIRPRPPRLPRPRPRPAPTPRP
shrunken log2 fold change: 0.704

RRIRPRPPRLPRPRPRPAQQPRP
shrunken log2 fold change: 0.263

RRIRPRPPRLPRPRPRPARYPRP
shrunken log2 fold change: 0.19

RRIRPRPPRLPRPRPRPASTPRP
shrunken log2 fold change: 0.11

RRIRPRPPRLPRPRPRPATHPRP
shrunken log2 fold change: 0.0822

RRIRPRPPRLPRPRPRPATIPRP
shrunken log2 fold change: -0.118

RRIRPRPPRLPRPRPRPATVPRP
shrunken log2 fold change: -0.0314

RRIRPRPPRLPRPRPRPAVTPRP
shrunken log2 fold change: 0.0942

RRIRPRPPRLPRPRPRPAVYPRP
shrunken log2 fold change: -0.0879

RRIRPRPPRLPRPRPRPAYNPRP
shrunken log2 fold change: -1.01

RRIRPRPPRLPRPRPRPCASPRP
shrunken log2 fold change: -0.0883

RRIRPRPPRLPRPRPRPCCKPRP
shrunken log2 fold change: -0.247

RRIRPRPPRLPRPRPRPCDDPRP
shrunken log2 fold change: 0.0508

RRIRPRPPRLPRPRPRPCDMPRP
shrunken log2 fold change: -0.217

RRIRPRPPRLPRPRPRPCDTPRP
shrunken log2 fold change: -0.193
